Target: Hck (UniProt P08631)
Assay: phosphorylation enrichment, bacterial display (enrichment ratio); higher = better substrate or ligand; peptides without Tyr show the background
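Also: 11-residue human phosphosite peptides and single-mutation variants displayed on the E. coli surface, counted by deep sequencing, each peptide's frequency after selection divided by its frequency in the unselected input library; frequency after pTyr selection over input frequency; kinase dosed for 20-30% of maximal phosphorylation in three min.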

Sequence of Hck (P08631 whole entry, looked up): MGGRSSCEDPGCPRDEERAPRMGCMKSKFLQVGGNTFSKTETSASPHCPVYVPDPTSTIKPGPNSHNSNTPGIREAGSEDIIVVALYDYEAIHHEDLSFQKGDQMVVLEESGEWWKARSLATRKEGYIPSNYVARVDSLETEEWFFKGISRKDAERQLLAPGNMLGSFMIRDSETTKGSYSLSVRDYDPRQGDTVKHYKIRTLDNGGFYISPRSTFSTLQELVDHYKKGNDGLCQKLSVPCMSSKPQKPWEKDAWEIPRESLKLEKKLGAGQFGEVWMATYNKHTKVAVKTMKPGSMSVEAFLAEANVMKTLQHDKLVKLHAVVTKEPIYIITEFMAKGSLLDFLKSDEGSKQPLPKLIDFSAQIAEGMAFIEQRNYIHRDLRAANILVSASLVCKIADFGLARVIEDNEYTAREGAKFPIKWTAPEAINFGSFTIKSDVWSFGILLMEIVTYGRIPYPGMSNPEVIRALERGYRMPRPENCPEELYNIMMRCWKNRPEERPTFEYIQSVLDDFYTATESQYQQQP

Sequence	phosphorylation enrichment
PFSNSYENSLI [EPOR_Y489_P488S_YF]	0.78
GHRPVYSEDEQ [CHST6_Y362_Y358H]	0.564
IEENGYNTYAS [FGF10_Y161]	0.645
SVTCTNSPALN [TP53_Y126_Y126N]	0.447
DGFIDYAEFAK [MCFD2_Y138_YF]	0.48
VFFDLYGGEKF [PTPN11_Y66_D61V_YF]	2.08
DGSALYTGSAL [COL6A3_Y524]	0.858
AHAGEYGEEAL [HBA1_Y25_A27E]	0.821
RLKAKYAAATG [GLI3_Y933]	0.464
YGAHKYHPLPV [OAT_Y55_N54K]	0.787
AISEGYKDFRA [CDA_Y79_V75I]	0.405
ARKWGYTVKGI [OAT_Y158]	0.354
FCRHNYGVVES [HLA-DRB1_Y112_YF]	0.526
EKMWSYMKSAE [GRIA3_Y705]	0.365
KNRDVYSSDYF [USP24_Y2134]	1
LIDSSYLTPTA [GREB1L_Y1063_R1066P]	0.684
FEGAIYRKDIG [GART_Y417_V421I]	0.506

Sequence	phosphorylation enrichment
RQAQAYRGQRV [TSHR_Y706]	0.839
LIHLHYIRKDF [BBS4_Y43_YF]	0.637
QTLTDYDIRFF [CSNK2A1_Y131_YF]	0.691
REVPVYTYSEP [FAM120B_Y368_D370Y]	4.16
IQRSLYDRPAS [PDGFRA_Y762]	1.59
TKDTFYKQPMF [GBA_Y451]	0.39
PLDGEYVTLQI [TP53_Y327_F328V]	0.922
LIGTPYWMAPE [PAK5_Y608_V604I]	1
RSHLPYDVTPE [IQGAP3_Y1098]	0.695
EAVLHYKHQNQ [MTOR_Y1804]	0.37
VPLATYMQIYK [RPL21_Y30_R32Q]	2.01
ARSHIYTFASC [MEFV_Y741]	0.671
GLGVTYEQALA [MAP2_Y996]	0.439
DFRTTYVNANE [KCNH2_Y475_N470D]	0.44
FIPFRYPKEFQ [IDS_Y234_H229Y_YF]	0.469
VVHSSYDEIEG [SEC24A_Y263]	0.475

Target: Fes (UniProt P07332)
Sequence (P07332 whole entry, looked up): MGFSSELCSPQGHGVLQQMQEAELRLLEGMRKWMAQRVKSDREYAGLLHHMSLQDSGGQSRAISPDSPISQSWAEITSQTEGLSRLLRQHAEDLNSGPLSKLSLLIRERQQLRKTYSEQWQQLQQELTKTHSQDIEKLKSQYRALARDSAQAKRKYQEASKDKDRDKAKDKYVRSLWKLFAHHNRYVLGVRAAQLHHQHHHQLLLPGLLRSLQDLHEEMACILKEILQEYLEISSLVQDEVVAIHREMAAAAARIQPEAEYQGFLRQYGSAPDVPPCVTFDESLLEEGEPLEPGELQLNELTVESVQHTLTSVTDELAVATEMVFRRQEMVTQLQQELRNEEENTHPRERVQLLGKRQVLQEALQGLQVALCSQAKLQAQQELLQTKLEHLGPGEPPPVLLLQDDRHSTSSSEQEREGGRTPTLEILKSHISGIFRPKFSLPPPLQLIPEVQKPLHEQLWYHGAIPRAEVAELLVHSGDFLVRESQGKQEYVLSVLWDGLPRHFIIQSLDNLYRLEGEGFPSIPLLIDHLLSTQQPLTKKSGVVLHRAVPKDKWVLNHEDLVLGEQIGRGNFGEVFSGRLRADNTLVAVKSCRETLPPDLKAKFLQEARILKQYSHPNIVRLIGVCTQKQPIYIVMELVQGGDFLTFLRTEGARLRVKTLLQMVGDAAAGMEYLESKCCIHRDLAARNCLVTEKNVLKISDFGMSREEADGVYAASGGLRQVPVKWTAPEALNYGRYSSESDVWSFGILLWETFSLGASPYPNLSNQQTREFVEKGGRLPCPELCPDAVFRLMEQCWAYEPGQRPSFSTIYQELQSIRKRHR
Assay: as above

Sequence	phosphorylation enrichment
PFSNSYENSLI [EPOR_Y489_P488S_YF]	1.21
GHRPVYSEDEQ [CHST6_Y362_Y358H]	1.13
IEENGYNTYAS [FGF10_Y161]	1.12
SVTCTNSPALN [TP53_Y126_Y126N]	1.24
DGFIDYAEFAK [MCFD2_Y138_YF]	1.23
VFFDLYGGEKF [PTPN11_Y66_D61V_YF]	1.11
DGSALYTGSAL [COL6A3_Y524]	0.638
AHAGEYGEEAL [HBA1_Y25_A27E]	1.47
RLKAKYAAATG [GLI3_Y933]	0.611
YGAHKYHPLPV [OAT_Y55_N54K]	0.892
AISEGYKDFRA [CDA_Y79_V75I]	0.638
ARKWGYTVKGI [OAT_Y158]	0.912
FCRHNYGVVES [HLA-DRB1_Y112_YF]	0.843
EKMWSYMKSAE [GRIA3_Y705]	0.949
KNRDVYSSDYF [USP24_Y2134]	0.944
LIDSSYLTPTA [GREB1L_Y1063_R1066P]	1.15
FEGAIYRKDIG [GART_Y417_V421I]	0.769

Sequence	phosphorylation enrichment
RQAQAYRGQRV [TSHR_Y706]	1.51
LIHLHYIRKDF [BBS4_Y43_YF]	1.18
QTLTDYDIRFF [CSNK2A1_Y131_YF]	1.48
REVPVYTYSEP [FAM120B_Y368_D370Y]	1.82
IQRSLYDRPAS [PDGFRA_Y762]	0.643
TKDTFYKQPMF [GBA_Y451]	0.638
PLDGEYVTLQI [TP53_Y327_F328V]	1.32
LIGTPYWMAPE [PAK5_Y608_V604I]	1.51
RSHLPYDVTPE [IQGAP3_Y1098]	1.45
EAVLHYKHQNQ [MTOR_Y1804]	0.799
VPLATYMQIYK [RPL21_Y30_R32Q]	0.636
ARSHIYTFASC [MEFV_Y741]	1
GLGVTYEQALA [MAP2_Y996]	0.686
DFRTTYVNANE [KCNH2_Y475_N470D]	0.781
FIPFRYPKEFQ [IDS_Y234_H229Y_YF]	0.883
VVHSSYDEIEG [SEC24A_Y263]	1.12
